T1: hIL27Rα ECD antigen (human, UniProt Q6UWB1 33-516)
T1 construct: Antigen of biopanning and PE-ELISA; also called ECD of the human IL27Rα; IL27Rα coated on the plate
T1 sequence: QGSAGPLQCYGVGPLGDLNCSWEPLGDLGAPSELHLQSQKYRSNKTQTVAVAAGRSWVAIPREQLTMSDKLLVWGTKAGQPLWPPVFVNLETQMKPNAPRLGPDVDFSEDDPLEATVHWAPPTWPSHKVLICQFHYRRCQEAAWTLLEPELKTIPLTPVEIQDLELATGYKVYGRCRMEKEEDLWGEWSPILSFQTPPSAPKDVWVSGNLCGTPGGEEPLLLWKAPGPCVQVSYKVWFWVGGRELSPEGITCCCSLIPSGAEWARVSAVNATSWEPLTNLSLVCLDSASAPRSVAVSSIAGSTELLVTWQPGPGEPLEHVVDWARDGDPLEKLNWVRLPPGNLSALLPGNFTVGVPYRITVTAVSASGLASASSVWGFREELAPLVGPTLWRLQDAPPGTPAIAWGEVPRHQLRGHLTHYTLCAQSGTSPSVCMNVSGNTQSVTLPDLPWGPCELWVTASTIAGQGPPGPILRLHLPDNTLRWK

T2: mIL27Rα ECD antigen (mouse, UniProt O70394 25-510)
T2 construct: Antigen of biopanning and PE-ELISA; The immunogen was made as a fusion of the ECD (residues 25-510 of the precursor) with the human IgG1 hinge and Fc; also called ECD of mouse IL27Rα; IL27Rα coated on the plate
T2 sequence: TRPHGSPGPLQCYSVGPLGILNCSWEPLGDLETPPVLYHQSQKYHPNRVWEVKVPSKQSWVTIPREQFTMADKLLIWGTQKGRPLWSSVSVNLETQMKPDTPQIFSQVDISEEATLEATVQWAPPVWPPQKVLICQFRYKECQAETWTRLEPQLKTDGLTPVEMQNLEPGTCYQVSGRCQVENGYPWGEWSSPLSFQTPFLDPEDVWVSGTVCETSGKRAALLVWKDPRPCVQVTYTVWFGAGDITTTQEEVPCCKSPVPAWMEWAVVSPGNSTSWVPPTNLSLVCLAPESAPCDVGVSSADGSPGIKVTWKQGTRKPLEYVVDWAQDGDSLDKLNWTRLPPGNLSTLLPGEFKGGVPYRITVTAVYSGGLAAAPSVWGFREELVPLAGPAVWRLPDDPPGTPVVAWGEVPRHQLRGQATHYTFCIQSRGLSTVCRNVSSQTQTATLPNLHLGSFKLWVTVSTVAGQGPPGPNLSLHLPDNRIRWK


Molecular target: T1, hIL27Rα ECD antigen
Test: PE-ELISA, periplasmic extract on antigen-coated plate
Description: (§1) Upon completion of the biopanning of Example 3, three 96-well plates of individual phage clones were isolated in order to perform periplasmic extract ELISA (PE-ELISA) on IL27Rα coated plates to identify positive VHH binders that selectively bound […]. A 96-well plate was coated with IL27Rα and PBS under the same conditions. Next, wells were blocked at 37° C. for 1 h. Then, 100 µl of extracted antibodies was added to each well and incubated for 1 h. Subsequently, 100 µl of anti-tag polyclonal antibody conjugated to HRP was added to each well and incubated at 37° C. for 1 h. Plates were developed with TMB substrate. The reaction was stopped by the addition of H2SO4. Absorbance at 450 nm was read on a microtiter plate reader. […] Positive clones were sequenced, and sequences analyzed to identify unique clonotypes.

Binder	binding result
hIL27Ra VHH17 (VHH, Camel VHH as periplasmic extract of a phage clone in the PE-ELISA; also called anti-human IL27Rα VHH; not shown: HA/His tag from the pMECS phagemid) VHH: QVQLQESGGGLVQPGGSLRLSCAASGFTFSLSGMSWVRQAPGKGLEWVSAISSGGASTYYTDSVKGRFTISRDNAKNMLYLQLNSLKTEDTAMYYCAKGGSGYGDASRMTSPGSQGTQVTVSS	binds
hIL27Ra VHH24 (VHH, Camel VHH as periplasmic extract of a phage clone in the PE-ELISA; also called anti-human IL27Rα VHH; not shown: HA/His tag from the pMECS phagemid) VHH: QVQLQESGGGLVQPGGSLRLSCAASGFTFSHSGMSWVRQAPGKGLEWVSTINSGGASTYYTDSVKGRFTISRDNAKNMLYLQLNSLKTEDTAMYYCAKGGSGYGDASRMTSPGSQGTQVTVSS	binds
hIL27Ra VHH2 (VHH, Camel VHH as periplasmic extract of a phage clone in the PE-ELISA; also called anti-human IL27Rα VHH; not shown: HA/His tag from the pMECS phagemid) VHH: QVQLQESGGGLVQPGGSLRLSCAASGFTFSLSGMSWVRQAPGKGLEWVSAISSGGASTYYTDSVKGRFTISRDNAKNILYLQLNSLKTEDTAMYYCAKGGSGYGDASRMTSPGSQGTQVTVSS	binds
hIL27Ra VHH10 (VHH, Camel VHH as periplasmic extract of a phage clone in the PE-ELISA; also called anti-human IL27Rα VHH; not shown: HA/His tag from the pMECS phagemid) VHH: QVQLQESGGGSVQAGGSLRLSCRASGSTYSNYCLGWFRQITGKEREGVAVINWVGGMLYFADSVKGRFTVSQDQAKNTLYLQMNSLKPEDTAMYYCAAESVSSFSCGGWLTRPDRVPYWGQGTQVTVSS	binds
hIL27Ra VHH23 (VHH, Camel VHH as periplasmic extract of a phage clone in the PE-ELISA; also called anti-human IL27Rα VHH; not shown: HA/His tag from the pMECS phagemid) VHH: QVQLQESGGGSVQAGGSLRLSCRASRSPYGNYCLGWFRQSTGKEREGVAVINWVGGMLYFADSVKGRFTVSQDHAKNTVTLQMNSLKPEDTAMYYCAAESVSSFSCGGWLTRPDRVPYWGQGTQVTVSS	binds
hIL27Ra VHH12 (VHH, Camel VHH as periplasmic extract of a phage clone in the PE-ELISA; also called anti-human IL27Rα VHH; not shown: HA/His tag from the pMECS phagemid) VHH: QVQLQESGGGSVQAGESLRLSCRASGSTYSNYCLGWFRQITGKEREGVAVINWVGGMLYFADSVKGRFTVSQDQAKNTVYLEMNSLKPEDTAMYYCATESVSSFSCGGWLTRPDRVPYWGQGTQVTVSS	binds
hIL27Ra VHH22 (VHH, Camel VHH as periplasmic extract of a phage clone in the PE-ELISA; also called anti-human IL27Rα VHH; not shown: HA/His tag from the pMECS phagemid) VHH: QVQLQESGGGSVQAGGSLRLSCRASGSTYSNYCLGWFRQTTGKEREGVAVINWVGGMLYFADSVKGRFTVSQDQAKNTVYLQMNSLKPEDTAMYYCAAESVSSFSCGGWLTRPDRVPYWGQGTQVTVSS	binds
hIL27Ra VHH16 (VHH, Camel VHH as periplasmic extract of a phage clone in the PE-ELISA; also called anti-human IL27Rα VHH; not shown: HA/His tag from the pMECS phagemid) VHH: QVQLQESGGGSVQAGGSLRLSCRASGSTYSNYCLGWFRQITGKEREGVAVINWVGGMLYFADSVKGRFTVSQDQAKNTVYLQMNSLKPEDTAMYYCAAESASSFSCGGWLTRPDRVPYWGQGTQVTVSS	binds
hIL27Ra VHH11 (VHH, Camel VHH as periplasmic extract of a phage clone in the PE-ELISA; also called anti-human IL27Rα VHH; not shown: HA/His tag from the pMECS phagemid) VHH: QVQLQESGGGSVQAGGSLRLSCRASGSTYSNYCLGWFRQSTGKEREGVAVINWVGGMLYFADSVKGRFTVSQDHAKNTVTLQMNSLKPEDTAMYYCAAESVSSFSCGGWLTRPGRVPYWGQGTQVTVSS	binds
hIL27Ra VHH14 (VHH, Camel VHH as periplasmic extract of a phage clone in the PE-ELISA; also called anti-human IL27Rα VHH; not shown: HA/His tag from the pMECS phagemid) VHH: QVQLQESGGGSVQAGGSLRLSCVASGYVSCDYFLPSWYRQAPGKEREFVSIIDGTGSTSYAASVKGRFTASQDKGKNIAYLQMNSLKPEDTAMYYCKASCVRGRAISEYWGQGTQVTVSS	binds
hIL27Ra VHH13 (VHH, Camel VHH as periplasmic extract of a phage clone in the PE-ELISA; also called anti-human IL27Rα VHH; not shown: HA/His tag from the pMECS phagemid) VHH: QVQLQESGGGSVQAGGSLRLSCVASGYVSCDYFLPSWYRQAPGKEREFVSIIDGTGSTSYAASVKGRFTASQDRGKNIAYLQMNSLKPEDTAMYYCKASCVRGRTISEYWGQGTQVTVSS	binds
hIL27Ra VHH3 (VHH, Camel VHH as periplasmic extract of a phage clone in the PE-ELISA; also called anti-human IL27Rα VHH; not shown: HA/His tag from the pMECS phagemid) VHH: QVQLQESGGGSVQAGGSLRLSCVASGYVSCDYFLPSWYRQAPGKEREFVSIIDGTGSTSYAASVKGRFTASEDKGKNIAYLQMNSLKPEDTAMYYCKASCVRGRAVSEYWGQGTQVTVSS	binds
hIL27Ra VHH18 (VHH, Camel VHH as periplasmic extract of a phage clone in the PE-ELISA; also called anti-human IL27Rα VHH; not shown: HA/His tag from the pMECS phagemid) VHH: QVQLQESGGGSVQAGGSLRLSCVASGYVSCDYFLPSWYRQAPGKEREFVSIIDGTGSTSYAASVKGRFTASQDKGKNIAYLQMNSLKPEDTAMYYCKASCVRGRGISEYWGQGTQVTVSS	binds
hIL27Ra VHH5 (VHH, Camel VHH as periplasmic extract of a phage clone in the PE-ELISA; also called anti-human IL27Rα VHH; not shown: HA/His tag from the pMECS phagemid) VHH: QVQLQESGGGSVQAGGSLRLSCTASGYVSCDYFLPSWYRQAPGKEREFVSVIDGTGSTSYAASVKGRFTASQDKGKNIAYLQMNSLKPEDTAMYYCKASCVRGRAISEYWGQGTQVTVSS	binds
hIL27Ra VHH4 (VHH, Camel VHH as periplasmic extract of a phage clone in the PE-ELISA; also called anti-human IL27Rα VHH; not shown: HA/His tag from the pMECS phagemid) VHH: QVQLQESGGGLVQPGESLRLSCTASGFTFSNYAMSWVRQAPGKGLEWVSGINVAYGITSYADSVKGRFTISRDNTKNTLYLQLNSLKTEDTAIYYCVKHSGTTIPRGFISYTKRGQGTQVTVSS	binds
hIL27Ra VHH7 (VHH, Camel VHH as periplasmic extract of a phage clone in the PE-ELISA; also called anti-human IL27Rα VHH; not shown: HA/His tag from the pMECS phagemid) VHH: QVQLQESGGGLVQPGGSLRLSCAASGFTFSSYPMSWVRQAPGKGLEWISTISAGGDTTLYADSVKGRFTSSRDNAKNTLYLQLNSLKTEDTAIYYCAKRIDCNSGYCYRRNYWGQGTQVTVSS	binds
hIL27Ra VHH20 (VHH, Camel VHH as periplasmic extract of a phage clone in the PE-ELISA; also called anti-human IL27Rα VHH; not shown: HA/His tag from the pMECS phagemid) VHH: QVQLQESGGGLVQPGGSLRLSCAASGFTFSSYPMSWVRQAPGKGLEWVSTISSGGDTTLYADSVKGRFTSSRDNAKNTLYLQLNSLKTEDTAMYYCAKRIDCNSGYCYKRSYWGQGTQVTVSS	binds
hIL27Ra VHH8 (VHH, Camel VHH as periplasmic extract of a phage clone in the PE-ELISA; also called anti-human IL27Rα VHH; not shown: HA/His tag from the pMECS phagemid) VHH: QVQLQESGGGSVQVGGSLRLSCAASGFTFSSYPMSWVRQAPGKGLEWISTISAGGDTTLYADSVKGRFTSSRDNAKNTLYLQLNSLKTEDTAIYYCAKRIDCNSGYCYRRNYWGQGTQVTVSS	binds
hIL27Ra VHH6 (VHH, Camel VHH as periplasmic extract of a phage clone in the PE-ELISA; also called anti-human IL27Rα VHH; not shown: HA/His tag from the pMECS phagemid) VHH: QVQLQESGGGLVQPGGSLRLSCAASGFSFSSYAMKWVRQAPGKGLEWVSTISSGGSSTNYADSVKGRFTISRDNAKNTLYLQLNSLKIEDTAMYYCAKAIVPTGATMERGQGTQVTVSS	binds

Molecular target: T2, mIL27Rα ECD antigen
Test: as above
Description: as §1

Binder	binding result
mIL27Ra VHH13 (VHH, Camel VHH as periplasmic extract of a phage clone in the PE-ELISA; also called anti-mouse IL27Rα VHH; not shown: HA/His tag from the pMECS phagemid) VHH: QVQLQESGGGSVQAGGSLRLSCAASGYSINRMGWFRQAPGKEREGVAAISIGGGRTYYADSVKGRFTISQDNAKNTVDLQMNSLKPEDTAMYYCAAGLVYGEAWLDSRHYNKWGQGTQVTVSS	binds
mIL27Ra VHH12 (VHH, Camel VHH as periplasmic extract of a phage clone in the PE-ELISA; also called anti-mouse IL27Rα VHH; not shown: HA/His tag from the pMECS phagemid) VHH: QVQLQESGGGSVQTGGSLRLSCAASGYSINRMAWFRQAPGKEREGVAAISIGGDRTYYADSVKGRFTISQDNAKHTVDLQMNSLKPEDTAMYYCAAGLVYGEAWLDSRHYNKWGQGTQVTVSS	binds
mIL27Ra VHH4 (VHH, Camel VHH as periplasmic extract of a phage clone in the PE-ELISA; also called anti-mouse IL27Rα VHH; not shown: HA/His tag from the pMECS phagemid) VHH: QVQLQESGGGSVQAGGSLRLSCAASGYSINRMGWFRQAPGKEREGVAAISIGGGQTYYADSVKGRFTISQDNAKNTVDLQMNSLKPEDTAMYYCAAGLVYGEAWLDSRHYNKWGQGTQVTVSS	binds
mIL27Ra VHH2 (VHH, Camel VHH as periplasmic extract of a phage clone in the PE-ELISA; also called anti-mouse IL27Rα VHH; not shown: HA/His tag from the pMECS phagemid) VHH: QVQLQESGGGSVQAGGSLRLSCTASGYTSSRYCMGWFRQTPGKKREGVAAIYTGGGTTFYHGSVKGRFTISQDNTTNTVYLQMHNLKPEDTAMYYCAAGPVTRACDEYNYWGQGTQVTVSS	binds
mIL27Ra VHH1 (VHH, Camel VHH as periplasmic extract of a phage clone in the PE-ELISA; also called anti-mouse IL27Rα VHH; not shown: HA/His tag from the pMECS phagemid) VHH: QVQLQESGGGSVQAGGSLRLSCAASKNSNFMGWFRQAPGKEREGVAAMMTKNNNTYYADSVKGRFTISHDNAKNTVYLQMDSLKPEDTAVYYCAAVYRTRRLRVLEAANFDYWGQGTQVTVSS	binds
mIL27Ra VHH3 (VHH, Camel VHH as periplasmic extract of a phage clone in the PE-ELISA; also called anti-mouse IL27Rα VHH; not shown: HA/His tag from the pMECS phagemid) VHH: QVQLQESGGGSVQAGGSLRLSCAGSGYSLSNYCMGWFRQAPGQGREGVASLRFVSGATFYADSVKGRFTIAQDNAKNTLYLQMNSLKPEDTAMYYCGIKSRGICGGRLVDVDFGNWGQGTQVTVSS	binds
